Results from patent US12018068B2, “Anti-O1 antibodies and uses thereof” (priority 2016, dated 2024).

B1: 54H7: mouse hybridoma anti-O1 antigen antibody (Ms IgG3), VH SEQ ID NO:47, VL SEQ ID NO:48 (antibody, V domains shown)
VH: QVHLQQPGSELVRPGASVTLSCKASGYTFTNYWMQWVKQRPGQGLEWIGNIYPGSGNTNYDEKFRSKATLTVDTSSSTAYMHLTSLTSEDSAVYYCTRNWNFDYWGQGTTLTVSS
VL: DIQMTQSPSSLSASLGERVSLTCRASQDIGSSLNWLQQEPDGTIKRLIYATSSLDSGVPKRFSGSRSGSEYSLTISSLEAEDFVDYYCLQHTDSPYTFGGGTKLELK
modifications: 54H7 VH; 54H7 VL Amino Acid Sequence
B2: KPE33: human anti-K. pneumoniae O1 antigen antibody, VH SEQ ID NO:8, VL SEQ ID NO:9, isolated as IgG2 from donor #262 (antibody, V domains shown)
VH: EVQLVESGGALVQPGGSLRLSCAVSGFIFDDYAIHWVRRAPGKGLEWVSGIAWKSGATNYADSVKGRFAISRDNSKKSMYLQMNSLGTEDTALYYCTRRRASGDDTFYYFDYWGQGTLVTVSS
VL: EIVLTQSPATLSLSPGERATLSCRASQNVNTNLAWYQQRPGQSPRLLIYDASTRAAGLPARFSGSGSGTDFTLTISSLEPEDFAVYYCQQCTNWRYTFGQGTKLEIK
modifications: KPE33 VH Amino Acid Sequence; KPE33 VL Amino Acid Sequence

Assays:
[1] = tested on: Kp43816 LPS and Kp15380 LPS; test: serum cytokines after LPS challenge (MSD kit); format: in vivo, C57BL/6 mice; settings: 3 hours after challenge with Kp43816 LPS and Kp15380 LPS
Experimental: In order to determine the effect of anti-O1 antigen antibodies on serum cytokines after LPS challenge, C57BL/6 mice were challenged with 0.3 mg/kg LPS intraperitoneally 24 hours after anti-O1 administration. 3 hours later, animals were sacrificed, and serum cytokines were measured using a Meso Scale Discovery (MSD) proinflammatory cytokine kit based on manufacturer's instruction. Polymyxin B (PMB) was used as a positive control. Serum IL-6, TNF-alpha, and CXCL1 concentration were plotted in Prism.

[2] = tested on: Kp8045 Klebsiella; test: pneumonia model, 54H7 synergy with meropenem; format: in vivo, Klebsiella pneumoniae; settings: antibody 1 mpk at 1 hour, meropenem 1.5 mpk at 4 hour post challenge
Experimental: The synergy of anti-O1 antigen antibodies and antibiotic was also assessed in the pneumonia mouse models. C57BL/6 mice were inoculated intranasally with 1e4 to 1e8 CFU of Kp8045 Klebsiella. Both sub-therapeutic dosage of antibodies (1 mpk) and meropenem antibiotic (1.5 mpk) were administered at 1 hour or 4 hour post bacterial challenge, respectively. Mouse survival was monitored daily until up to day 8.

[3] = tested on: ESBL strain Kp8561 (O1); test: lethal bacteremia model, survival; format: in vivo, Klebsiella pneumoniae; settings: C57BL/6 mice, 1.5, 5, 15 mg/kg one hour post challenge
Experimental: In a bacteremia model, C57BL/6 mice were inoculated intraperitoneally with 1e8 CFU extended spectrum beta lactamase (ESBL) clinical isolate strain Kp8561 (O1). Anti-K. pneumoniae monoclonal antibody KPE33 at 1.5, 5, and 15 mg/kg and human IgG1 control antibody at 45 mg/kg were given one hour post bacterial challenge (therapeutic dosing). Mouse survival was monitored daily until up to day 8.

[4] = tested on: K. pneumoniae and S. aureus SF8300 (USA300); test: K. pneumoniae and S. aureus co-infection pneumonia model; format: in vivo, Klebsiella pneumoniae and Staphylococcus aureus; settings: C57BL/6 mice, 0.5 mL ip, 24 hours prior to co-infection
Experimental: In order to evaluate the efficacy of anti-O1 antigen antibodies in co-infection, female 7-8 week old C57BL/6 mice were briefly anesthetized in 3% Isoflurane and 50 μl of bacterial suspension was placed on the nares. Animals were inoculated with 5e7 CFU S. aureus SF8300 (USA300) alone or in combination with 1.5e2 CFU of K. pneumoniae and monitored up to 7 days for survival studies. For organ burden studies, lungs and spleens were harvested at 24 or 48 hours post challenge as described in Example 5 above. For protection studies, mice were passively immunized (0.5 mL, ip) with KPE33 or control mAb before lethal bacterial challenge. All data were plotted in Prism.

[5] = tested on: K. pneumoniae strain Kp8045 (O1:K1); test: intranasal lung infection model, lung bacterial burden; format: in vivo, Klebsiella pneumoniae; settings: C57BL/6 mice, 15 mg/kg, CFU 48 hours post infection
Experimental: The ability of anti-O1 antigen antibodies to reduce organ burden was tested in bacterial infection models. In these experiments, C57BL/6 mice were received from Jackson laboratories and maintained in a special pathogen free facility. All animal experiments were conducted in accordance with IACUC protocol and guidance. K. pneumoniae strains were grown on agar plates overnight and diluted in saline at proper concentration. The inoculum titer was determined by plating a serial dilution of bacteria onto agar plates prior to and post challenge.
Antibodies and controls at 15 mg/kg were administered 24 hours prior to bacterial infection. C57BL/6 mice were inoculated with 1e4 CFU Kp8045 (O1:K1) bacteria in 40 μl saline intranasally to induce pneumonia. The lung bacterial burden was measured by plating lung homogenates onto agar plates to determine CFU 48 hours post infection.

Molecule | serum IL-6 [1] | serum KC (CXCL1) [1] | serum TNF-alpha [1] | survival, combination with meropenem, pneumonia Kp8045 [2] | survival, lethal bacteremia Kp8561 [3] | survival in lethal co-infection [4] | lung bacterial burden [5]
B1 | reduces | reduces | reduces | significant synergy and better protection than monotherapy | – | – | –
B2 | – | – | – | – | protect mice from extended spectrum beta-lactamase (ESBL) strain Kp8561 | rescued the mice | significantly reduced organ burden
